Four molecules from publication PMC4893818, “Folliculin directs the formation of a Rab34–RILP complex to control the nutrient‐dependent dynamic distribution of lysosomes” (EMBO Reports, 2016) can be followed below.

Assay [1] deals with T1, GST-RILP (full ORF) (human, UniProt Q96NA2 1-401).
T1 construct: also called GST-RILP resin; source: E. coli BL21(DE3), purified (glutathione beads, eluted with glutathione, dialysed); not shown: GST, N-terminal, kept
T1 sequence (looked up): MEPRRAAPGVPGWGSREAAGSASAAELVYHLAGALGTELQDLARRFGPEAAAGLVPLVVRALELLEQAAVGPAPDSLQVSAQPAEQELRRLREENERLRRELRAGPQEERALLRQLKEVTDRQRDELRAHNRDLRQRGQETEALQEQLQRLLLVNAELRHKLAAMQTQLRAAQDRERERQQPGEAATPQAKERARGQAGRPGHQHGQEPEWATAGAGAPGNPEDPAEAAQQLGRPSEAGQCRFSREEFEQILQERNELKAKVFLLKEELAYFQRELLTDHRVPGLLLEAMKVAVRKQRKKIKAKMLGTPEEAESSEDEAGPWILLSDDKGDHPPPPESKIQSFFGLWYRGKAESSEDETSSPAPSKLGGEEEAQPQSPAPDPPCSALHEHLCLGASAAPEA
The experiment in a line: pull-down; 0.1 nmol GST-RILP prebound to glutathione beads, lysate of HeLa cells in normal growth or starved 4 h; 25 mM HEPES pH 7.5, 150 mM NaCl, 2 mM MgCl2, 0.2% NP-40, 0.2% Triton X-100; Western blot. The following applies: one partner purified. In general terms: In western blotting, separated proteins are transferred to a membrane and probed.

The target of assay [2] is T1, GST-RILP (full ORF). The experiment in a line: pull-down; GST-RILP or GST on beads, His-FLCN-DENN in E. coli extract; Western blot. The following applies: one partner purified.
The target of assay [3] is T1, GST-RILP (full ORF). The experiment in a line: pull-down; purified proteins: 0.2 nmol GST-RILP on glutathione beads; Rab34 proteins at 200 nM together with FLCN-DENN (1 uM; titrated 0 to 10 uM; 0.5 uM for wild-type Rab34); HEPES pH 7.5, 250 mM NaCl, 2 mM MgCl2, 1 mM GDP or GTPγS; 14 h at 4 °C; anti-His Western blot. The following applies: both partners purified.

Positions count from the first letter of the chain named. Numbers in names are those of the source.

B1: endogenous Rab34 (natural protein, UniProt Q9BZG1 1-259, looked up)
chain: MNILAPVRRDRVLAELPQCLRKEAALHGHKDFHPRVTCACQEHRTGTVGFKISKVIVVGDLSVGKTCLINRFCKDTFDKNYKATIGVDFEMERFEVLGIPFSLQLWDTAGQERFKCIASTYYRGAQAIIIVFNLNDVASLEHTKQWLADALKENDPSSVLLFLVGSKKDLSTPAQYALMEKDALQVAQEMKAEYWAVSSLTGENVREFFFRVAALTFEANVLAELEKSGARRIGDVVRINSDDSNLYLTASKKKPTCCP
notes: Rab34 small GTPase, endogenous in human cell lines; source: endogenous, HeLa lysate; endogenous, lysates of UOK257, UOK257-2, UOK257-FLCN and UOK257-FLCNΔDENN cells
Turning to B1, the “fold increase of Rab34 retained on GST-RILP, starved against normal growth” value in assay [1] was ~2 fold.

B2: His-tagged human FLCN-DENN domain (amino acids 341-556) (domain or fragment, UniProt Q8NFG4 341-556, looked up)
chain: RKLPVFKSLRHMRQVLGAPSFRMLAWHVLMGNQVIWKSRDVDLVQSAFEVLRTMLPVGCVRIIPYSSQYEEAYRCNFLGLSPHVQIPPHVLSSEFAVIVEVHAAARSTLHPVGCEDDQSLSKYEFVVTSGSPVAADRVGPTILNKIEAALTNQNLSVDVVDQCLVCLKEEWMNKVKVLFKFTKVDSRPKEDTQKLLSILGASEEDNVKLLKFWMTG
notes: folliculin (FLCN), human, C-terminal DENN domain, amino acids 341-556, in pET28 His-thrombin; vector pET28 His-thrombin; detected by an anti-His antibody; also called His-FLCN-DENN; source: E. coli, purified (His-trap FF, imidazole gradient)
For the molecule B2, in assay [2], the binding result is reported as “binds”.

B3: His-tagged Rab34 WT (natural protein, mouse, UniProt Q64008 1-259, looked up)
chain: MNILAPVRRDRVLAELPQCLKKEAALHVRKDFHPRVTCACQEHRTGTVGFKISKVIVVGDLSVGKTCLINRFCKDTFDKNYKATIGVDFEMERFEVLGVPFSLQLWDTAGQERFKCIASTYYRGAQAIIIVFNLNDVASLEHTKQWLTDALKENDPSNVLLFLVGSKKDLSTPAQYSLMEKDALKVAQEIKAEYWAVSSLTGENVREFFFRVAALTFEANVLADVEKSGARHIADVVRINSDDKNLYLTASKKKATCCP
notes: Rab34, mouse, from an I.M.A.G.E. clone, in pET28 His-thrombin; loaded with GTPγS or GDP before the pull-down; also called wild-type Rab34; purified Rab34; source: E. coli, purified (His-trap FF, imidazole gradient)
For the molecule B3, the binding result in assay [3] is given as “binds”.

B4: His-tagged Rab34 Q111L (natural protein, mouse, UniProt Q64008 1-259, looked up)
chain: B3 chain with Q111L
notes: Rab34, mouse, from an I.M.A.G.E. clone, in pET28 His-thrombin; assayed in the presence of 1 mM GTPγS; also called GTP hydrolysis-deficient (Q111L) Rab34; source: E. coli, purified (His-trap FF, imidazole gradient)
As for B4, the “fold enhancement of binding to RILP in the presence of FLCN-DENN (1 uM) against without it” value in assay [3] is ~2.7 fold.
